From patent publication US20240166695A1, “PEPTIDIC POSITIVE ALLOSTERIC MODULATORS TARGETING TRPV1” (priority 2021, published 2024)
Residue numbers refer to the chain shown, from its start.

B1: De4: design on scaffold 2HDZ used as negative control because it cannot refold well, SEQ ID NO: 38 (protein)
chain: LPESPRFAQKIWQQSVIGDYLARFKNDRVKALKAMEDSSNNSSMHRFAEFFAKAFEDLHRYLEEL
B2: De1: designed 93-residue protein binder to TRPV1 ARD, scaffold 1QZM, SEQ ID NO: 8 (protein)
chain: NGYSSEDKLRIAKRHLLPKQIERNALKKGELFVSEFAILGIILFYTDEAGVRGLEREISKLCRKAVKQLLLDKSTTSSHASGFHLHDYLGVMR
B3: De2: optimized version of De1, 93 residues, scaffold 1QZM, SEQ ID NO: 37 (protein)
chain: B2 chain with S4W, L9E, F32K, S34W, L39F, D47W, S77R, H79W

Legend:
TRPV1 channel [1] = assay: FRET imaging of TRPV1-YFP and design-CFP co-expressed in HEK293 cells; type: binding; details: for FRET signal between design-CFP and TRPV1-YFP: co-expressed in cells; for FRET efficiency: spectraFRET, design-CFP and TRPV1-YFP; for FRET ratio max: HEK293 cells
From the text: Any design candidate can be assessed for the ability to bind TRPV1 using techniques including, but not limited to, the FRET protocols and SPR protocols described herein. For example, complementary fluorescent proteins (including, but not limited to, GFP CFP, YFP, and the like) may be fused recombinantly to a designed peptide and to TRPV1 for assessment of TRPV1 binding via FRET. In some non-limiting embodiments, binding of a candidate modulator to TRPV1 can be confirmed by observing a FRET ratio max of at least 1.25 when YFP is fused to the C-terminus of TRPV1, CFP is fused to the C-termini of a candidate peptide. In some embodiments, binding of a candidate modulator to TRPV1 can be confirmed by observing a FRET efficiency greater than about 4% (e.g., at least 5%, or at least 7%) when YFP is fused to the C-terminus of TRPV1, CFP is fused to the C-termini of a candidate peptide. FRET measurements can be made by co-expressing the FRET-labeled constructs in host cells, exciting the CFP construct in the host cells at 458 inn, and observing YFP emission at 530 nm. CFP emission can be separated from YFP emission by fitting of standard spectra acquired from cells expressing YFP or CFP only.
FRET efficiency is defined in its usual definition; it is inversely related to the sixth power of the distance between complementary fluorescent proteins on the binding partners. FRET efficiency is quantified from measurements of the fluorescence emission spectra, using the established method.
FRET ratios can be calculated from the increase in YFP emission due to energy transfer as described previously (Qiu, et al. J. Biol. Chem. 2005, 280, 24923, incorporated herein by reference in its entirety). CFP emission can be separated from YFP emission by fitting of standard spectra acquired from cells expressing only YFP or CFP. The fraction of YFP-tagged molecules that are associated with CFP-tagged molecules, Ab, is calculated as Ab=1/(1+KD/[Dfree]), where KD is the dissociation constant and [Dfree] is the concentration of free donor molecules. The FRET Ratio=1+Ab*(FRET Ratiomax−1). Regression analysis can be used to estimate Ab in individual cells. From each cell, the FRET ratioexp is experimentally determined. The predicted Ab value is then computed by adjusting two parameters, FRET Ratiomax, and apparent KD Ab was in turn used to give a predicted FRET ratiopredicted. By minimizing the squared errors (FRET ratioexp. FRET ratiopredicted)^2, KD was determined.
Apparent FRET efficiency can be calculated from the enhancement of YFP acceptor fluorescence emission due to energy transfer from the CFP donor using previously described methods. [see, e.g., Yang and Zheng, et al. Proc. Natl. Acad. Sci. U.S.A. 2010, 107 7083, which is incorporated herein by reference]. RatioA0, and RatioA1, are measured to calculate FRET efficiency. RatioA0, represents the ratio between acceptor emission intensities (in the absence of the donor) upon excitation at the donor and acceptor excitation wavelengths, and can be calculated at the YFP peak emission wavelength. A particular advantage of quantifying RatioA0 for FRET measurement is that changes in fluorescence intensity caused by many experimental factors cap be cancelled out by the ratiometric measurement:
To experimentally test whether our designed proteins work as PAM of TRPV1, we first tested whether they could interact with TRPV1 channel in live cells. We genetically fused YFP and CFP to the C termini of TRPV1 and our designs, respectively.
For spectroscopic imaging in FRET experiments, the imaging system was built upon a Nikon TE2000-U microscope. The excitation light was generated by an Ar laser. The duration of light exposure was controlled by a computer-driven mechanical shutter (Uniblitz). A spectrograph (Acton SpectraPro 2150i) was used in conjunction with a CCD camera (Roper Cascade 128B). […]

TRPV1 [2] = biological target: T1, TRPV1 (UniProt Q704Y3); assay: Whole-cell patch-clamp recordings of capsaicin activation, desensitization and tachyphylaxis; type: cell-based; details: design co-expressed with TRPV1; for acute current desensitization upon capsaicin activation: extracellular calcium present
T1 construct: other: TRPV1 alone; absence of extracellular calcium; other: design co-expressed with TRPV1; extracellular calcium p; repeated caps; fused on or other part: Possibly YFP at the C-terminus
Method: Patch-clamp recordings were performed with a HEKA EPC10 amplifier controlled by PatchMaster software (HEKA). Whole-cell recordings at ±80 mV were used to test whether an ANAP-incorporated channel was functional. Patch pipettes were prepared from borosilicate glass and fire-polished to resistance of ˜4 MΩ. For whole-cell recording, serial resistance was compensated by 60%. A solution with […], 10 mM glucose, 0.2 mM EDTA and 3 mM HEPES (pH 7.2) was used in both bath and pipette for concentration response curve measurements in TRPV1, TRPV2 and TRPV3. To measure calcium-dependent ligand-induced desensitization and tachyphylaxis, 2 mM CaCl2 was added to the solution. Membrane potential was clamped at ±80 mV. Current was sampled at 10 kHz and filtered at 2.9 kHz. All recordings were performed at room temperature (22° C.) with the maximum variation of 1° C.
Ligands were perfused to membrane patch by a gravity-driven system (RSC-200, Bio-Logic). Bath and ligand solution were delivered through separate tubes to minimize the mixing of solutions. Patch pipette was placed in front of the perfusion tube outlet.

ARD of TRPV1 = biological target: T2, ARD of TRPV1 (Rattus norvegicus, UniProt O35433); assay: Surface plasmon resonance, ARD immobilized on CM5 sensor chip; type: binding; details: protein boiled to disrupt three-dimensional structure
T2 construct: made in house; host or cells: E. coli BL21 (DE3), pET-32a
T2 sequence (O35433 with tags, fused parts or gaps): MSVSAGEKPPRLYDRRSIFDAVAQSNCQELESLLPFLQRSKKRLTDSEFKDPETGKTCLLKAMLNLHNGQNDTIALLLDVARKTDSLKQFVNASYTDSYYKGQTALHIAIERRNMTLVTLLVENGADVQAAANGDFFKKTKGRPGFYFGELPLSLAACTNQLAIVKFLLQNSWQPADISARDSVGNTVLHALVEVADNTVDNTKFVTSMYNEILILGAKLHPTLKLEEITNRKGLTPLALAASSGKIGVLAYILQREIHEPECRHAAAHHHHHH
From the text: To further quantify the binding affinity of the designs to the ARD, we expressed and purified both designed proteins and the ARD in E. coli. The DNA sequence of each designed protein and the ARD of TRPV1 (see their primary protein sequences in Table 6) was synthesized and inserted into the pET-32a plasmid after codon optimization for protein expression in bacteria E. coli BL21 (DE3) was transformed with the recombinant plasmids. A single colony was inoculated into media containing ampicillin; cultures were incubated in 37° C. at 200 rpm. Once cell density reached to OD 0.8-1.0 at 600 inn, IPTG was introduced for induction. SDS-PAGE was used to monitor the expression. […] The protein expression was stopped by centrifugation at 8000 rpm for 30 min. We collected cells and resuspended in resuspension solution containing 50 mM Tris-HCl, 150 mM NaCl, 10% glycerol and protease inhibitor (pH 7.4). The cells were lysed by sonication. The supernatant after centrifugation was kept for future purifications. Taget proteins were obtained by Ni column, and then further purified by the reversed phase HPLC on a Jupiter C4 column (10×250 mm, Phenomenex, Torrance, CA, USA). […]
We then quantified the binding of De1 and De3 to the ARD protein fixed on the sensor chip by surface plasma resonance (SPR) (FIGS. 6A and 6B). […] Steady-state SPR responses were measured and used to determine the KD values. […]

TRPV1 channel [3] = assay: Airyscan super resolution imaging of TRPV1-YFP and De1-CFP in HEK293 cells; type: cell-based; details: co-transfected HEK293 cells
Method: Super-resolution fluorescence microscopy was performed with the Zeiss LSM 880 fluorescence microscope with Airyscan. YFP fused to TRPV1 and CFP fused to the designed proteins were excited by laser line at 488 nm and 458 nm, respectively. We used a 60× oil-immersion objective (NA 1.42) in these experiments. Fluorescence imaging was performed with the default settings for CFP and YFP channels in the microscope controlled by the Zeiss ZEN software. Overlay of YFP- and CFP-channel images was also done in ZEN.

TRPV1 [4] = assay: Calcium imaging (Fluo-4) of capsaicin activation in transfected HEK293 cells; type: cell-based; details: 0.5 nM capsaicin; design co-expressed with TRPV1
Method: We then investigated whether, upon binding of the designed proteins, TRPV1 activation was positively modulated. […] Probenecid (2 mM) was included in all solutions to prevent Fluo-4 leakage from cells. At the end of incubation, cells were washed three times with ECS and incubated in the same solution for another 20 min at room temperature to complete the intracellular hydrolysis process of the AM ester, which converts the non-fluorescent Fluo-4/AM into the fluorescent version Fluo-4.
Coverslip with dye-loaded cells was placed in the quick-release magnetic chamber (Warner) and mounted on the stage of a Nikon Eclipse TE2000-U microscope system equipped with a Roper Cascade 128B CCD camera. Fluo-4 was excited by an Argon laser with a filter set of Z488/10 (excitation), z488rdc (dichroic) and recorded through an emission filter HQ5001p (all from Chroma). The duration of light exposure was controlled by a computer-driven mechanical shutter (Uniblitz). Cell images were acquired sequentially with an exposure period of 200 ms at an interval of 1 s. The shutter and the camera were controlled and synchronized by MetaMorph software (Universal Imaging).

| Molecule | FRET signal between design-CFP and TRPV1-YFP (TRPV1 channel [1]) | FRET efficiency (TRPV1 channel [1]) [%] | acute current desensitization upon capsaicin activation (TRPV1 [2]) | binding with the ARD after boiling of the protein (ARD of TRPV1) | FRET ratio max (TRPV1 channel [1]) | co-localization with TRPV1 on cell membrane (TRPV1 channel [3]) | activation of TRPV1 by low capsaicin concentration when co-expressed with design (TRPV1 [4]) | capsaicin induced tachyphylaxis (TRPV1 [2]; repeated capsaicin application) |
| --- | --- | --- | --- | --- | --- | --- | --- | --- |
| B1 | no FRET occurred | 3.8 | no such an effect was observed |  |  |  |  |  |
| B2 | positive FRET signals |  | significantly slowed down | completely abolished | 3.86 | clear co-localization | sufficient to activate TRPV1 channels | capsaicin induced tachyphylaxis was reduced |
| B3 | positive FRET signals | 7.4 | no such an effect was observed |  | 2.35 |  |  |  |
